Measured values published in article PMC7275706.

Key:
[1] = target: Toxoplasma gondii ERK7 kinase domain, ERK7_(2–358); assay: fluorescence polarisation competition; conditions: competition with fluorescein-labeled wild-type AC9
[2] = target: APS 609-621 (Rattus norvegicus) (UniProt Q9Z200); conditions: cited from earlier work
[3] = target: Toxoplasma gondii ERK7 kinase domain, ERK7_(2–358) (Toxoplasma gondii); assay: fluorescence polarisation; competition: unlabeled AC9 constructs titrated against 10 nM fluorescein-AC9 and 100 nM ERK7; single-site inhibition, global fit
[4] = target: Shc 423-435 (Homo sapiens) (UniProt P29353); conditions: cited from earlier work
[5] = target: fluorescein-labeled AC9_(419–452) with an additional N-terminal Cys (Toxoplasma gondii); assay: fluorescence polarisation; ERK7 2–358 serially diluted against 10 nM fluorescein-AC9 419–452, 20 μL in 384-well plate; single-site binding, global fit of three replicate experiments
[6] = target: fluorescein-labeled synthetic MEK2_(4–16) peptide (rat) (rat) (UniProt P36506); assay: fluorescence polarisation; ERK7 titrated against 100 nM fluorescein-labeled synthetic MEK2 4–16 peptide; single-site binding, global fit

Sequence of Grb2 SH2 (P62993 57-155): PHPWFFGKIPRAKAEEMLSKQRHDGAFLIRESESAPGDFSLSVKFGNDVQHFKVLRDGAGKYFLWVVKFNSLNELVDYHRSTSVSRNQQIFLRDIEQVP

## AC9 wild type R421A; K423A
[1]
  Ki: 63 nM

## Cbl TKB (from UniProt P22681)
[2]
  Kd: 43 nM

## AC9_(W438A) (domain or fragment)
[3]
  Ki: 1600 nM

## Grb2 SH2 (from UniProt P62993)
[4]
  Kd: 18 nM

## WT AC9_(401–452) (domain or fragment)
[3]
  Ki: 15 nM

## Toxoplasma gondii ERK7 kinase domain, ERK7_(2–358) (domain or fragment)
[5]
  Kd: 34 nM
[6]
  Kd: 12000 nM

## AC9_(R421A/K423A) (domain or fragment)
[3]
  fold reduction of affinity against wild-type AC9: 4 fold
